Assay results as given in patent US20050176069A1 (PHARMACIA AND UPJOHN, published 2005).
Read-outs that look alike come from different tables or passages of the source. Where no end group is shown, it is not given here. [ ]: non-standard residue; d: D form. Tyr(3-I) = N[C@@H](Cc1ccc(O)c(I)c1)C(=O)O; pGlu = O=C1CC[C@@H](C(=O)O)N1

B1: SEVPGVLRF-NH2 (peptide)
peptide: SEVPGVLRF-NH2
B2: SVPGVLRF-NH2 (peptide)
peptide: SVPGVLRF-NH2
B3: …-NH2 (SchistoFLRFa) (peptide)
peptide: PDVDHVFLRF-NH2
B4: …-NH2 (AF9) (peptide)
peptide: GLGPRPLRF-NH2
B5: GGPQGPLRF-NH2 (peptide)
peptide: GGPQGPLRF-NH2
B6: GMPGVLRF-NH2 (AF20) (peptide)
peptide: GMPGVLRF-NH2
B7: GNSFLRF-NH2 (peptide)
peptide: GNSFLRF-NH2
notes: also called GNSFLRFamide
B8: …-NH2 (dromyosuppressin) (peptide)
peptide: TDVDHVFLRF-NH2
B9: p…-NH2 (leucomyosuppressin) (peptide)
peptide: [pGlu]DVDHVFLRF-NH2
SMILES: CC(C)C[C@H](NC(=O)[C@H](Cc1ccccc1)NC(=O)[C@@H](NC(=O)[C@H](Cc1c[nH]cn1)NC(=O)[C@H](CC(=O)O)NC(=O)[C@@H](NC(=O)[C@H](CC(=O)O)NC(=O)[C@@H]1CCC(=O)N1)C(C)C)C(C)C)C(=O)N[C@@H](CCCNC(=N)N)C(=O)N[C@@H](Cc1ccccc1)C(N)=O
B10: 3-Iodo-Y-GVLRF-NH2 (peptide)
peptide: [Tyr(3-I)]GVLRF-NH2
modifications: N-terminus assumed
SMILES: CC(C)C[C@H](NC(=O)[C@@H](NC(=O)CNC(=O)[C@@H](N)Cc1ccc(O)c(I)c1)C(C)C)C(=O)N[C@@H](CCCNC(=N)N)C(=O)N[C@@H](Cc1ccccc1)C(N)=O
notes: Synthetic
B11: AVPGVLRF-NH2 (AF3) (peptide)
peptide: AVPGVLRF-NH2
B12: GPSGPLRF-NH2 (peptide)
peptide: GPSGPLRF-NH2
B13: 3-Iodo-Y-PGVLRF-NH2 (peptide)
peptide: [Tyr(3-I)]PGVLRF-NH2
modifications: N-terminus assumed
SMILES: CC(C)C[C@H](NC(=O)[C@@H](NC(=O)CNC(=O)[C@@H]1CCCN1C(=O)[C@@H](N)Cc1ccc(O)c(I)c1)C(C)C)C(=O)N[C@@H](CCCNC(=N)N)C(=O)N[C@@H](Cc1ccccc1)C(N)=O
notes: Synthetic; also called 3-Ioda-Y-PGVLRF-NH2
B14: …-NH2 (AF4) (peptide)
peptide: GDVPGVLRF-NH2

Key:
CEGPCR4 = biological target: T1, CEGPCR4 (C. elegans); test: competition binding assay, CEGPCR4/CHO membranes, vs [125I-Y]DVPGVLRF-NH2
T1 construct: Expressed in CHO cells
T1 chain: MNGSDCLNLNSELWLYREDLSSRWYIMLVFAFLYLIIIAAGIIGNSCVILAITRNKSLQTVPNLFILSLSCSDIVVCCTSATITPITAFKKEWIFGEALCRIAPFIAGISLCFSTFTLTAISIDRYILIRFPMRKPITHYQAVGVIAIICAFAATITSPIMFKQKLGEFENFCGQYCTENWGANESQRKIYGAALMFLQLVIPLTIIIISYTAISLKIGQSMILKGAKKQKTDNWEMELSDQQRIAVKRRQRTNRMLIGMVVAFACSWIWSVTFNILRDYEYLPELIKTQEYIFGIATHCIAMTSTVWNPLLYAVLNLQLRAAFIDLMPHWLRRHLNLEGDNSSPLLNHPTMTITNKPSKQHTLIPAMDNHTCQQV

CEGPCR16 = biological target: T2, CEGPCR16 (C. elegans); test: cell-based or functional assay
T2 chain: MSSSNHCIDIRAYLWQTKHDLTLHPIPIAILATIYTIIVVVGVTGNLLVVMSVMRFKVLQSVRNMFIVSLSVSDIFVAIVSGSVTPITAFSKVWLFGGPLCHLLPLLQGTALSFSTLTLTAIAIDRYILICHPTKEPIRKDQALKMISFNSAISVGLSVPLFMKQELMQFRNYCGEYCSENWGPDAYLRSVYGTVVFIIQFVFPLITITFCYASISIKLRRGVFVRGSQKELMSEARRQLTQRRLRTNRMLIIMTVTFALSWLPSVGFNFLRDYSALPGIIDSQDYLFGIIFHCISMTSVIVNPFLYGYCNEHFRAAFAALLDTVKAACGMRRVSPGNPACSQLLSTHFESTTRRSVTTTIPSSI

CEGPCR12h (C. elegans) = biological target: T3, CEGPCR12h (C. elegans); test: cell-based or functional assay
T3 chain: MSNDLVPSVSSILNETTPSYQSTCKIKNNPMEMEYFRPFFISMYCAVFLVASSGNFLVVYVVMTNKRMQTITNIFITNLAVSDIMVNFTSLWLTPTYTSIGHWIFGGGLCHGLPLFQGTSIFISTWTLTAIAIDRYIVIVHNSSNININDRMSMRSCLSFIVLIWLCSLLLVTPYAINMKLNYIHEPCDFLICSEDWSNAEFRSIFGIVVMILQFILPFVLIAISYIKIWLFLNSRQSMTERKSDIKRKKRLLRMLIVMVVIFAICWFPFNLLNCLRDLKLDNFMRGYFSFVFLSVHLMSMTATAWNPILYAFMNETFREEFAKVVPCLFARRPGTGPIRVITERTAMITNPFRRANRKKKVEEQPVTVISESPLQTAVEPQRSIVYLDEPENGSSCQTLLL

CEGPCR4 (C. elegans) = biological target: T4, CEGPCR4 (C. elegans); test: competition binding assay, CEGPCR4/CHO membranes, vs [125I-Y]DVPGVLRF-NH2
T4 chain: T1 chain

[1] = biological target: T5, CEGPCR7 (C. elegans), Q18534; test: cell-based or functional assay
T5 chain: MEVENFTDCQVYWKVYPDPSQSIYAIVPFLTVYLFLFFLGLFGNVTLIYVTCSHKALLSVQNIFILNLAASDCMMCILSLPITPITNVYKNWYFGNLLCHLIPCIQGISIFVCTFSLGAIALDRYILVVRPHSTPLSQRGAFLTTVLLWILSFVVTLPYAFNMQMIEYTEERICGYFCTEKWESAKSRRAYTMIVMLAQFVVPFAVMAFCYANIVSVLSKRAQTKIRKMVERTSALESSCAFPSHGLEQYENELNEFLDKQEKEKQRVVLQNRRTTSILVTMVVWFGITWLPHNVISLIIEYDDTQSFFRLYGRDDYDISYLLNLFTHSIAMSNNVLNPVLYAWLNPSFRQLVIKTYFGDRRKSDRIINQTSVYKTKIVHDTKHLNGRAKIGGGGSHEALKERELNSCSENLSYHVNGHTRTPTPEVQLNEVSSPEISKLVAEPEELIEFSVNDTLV

CEGPCR3 = biological target: T6, CEGPCR3 (C. elegans, UniProt P90745 1-376); test: cell-based or functional assay
T6 sequence: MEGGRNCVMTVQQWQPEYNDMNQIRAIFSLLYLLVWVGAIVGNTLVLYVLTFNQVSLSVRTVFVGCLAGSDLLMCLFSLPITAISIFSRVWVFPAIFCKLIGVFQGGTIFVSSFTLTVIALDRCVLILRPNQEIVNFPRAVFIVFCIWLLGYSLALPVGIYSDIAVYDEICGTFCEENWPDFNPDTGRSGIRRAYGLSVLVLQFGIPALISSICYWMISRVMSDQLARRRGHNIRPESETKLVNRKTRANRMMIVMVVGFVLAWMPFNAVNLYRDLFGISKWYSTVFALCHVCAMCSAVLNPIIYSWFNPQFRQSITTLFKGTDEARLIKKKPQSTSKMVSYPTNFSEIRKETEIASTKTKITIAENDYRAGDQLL

Binder | IC50 (CEGPCR4) [nM] | IC50 (CEGPCR4 (C. elegans)) [nM] | further results
B1 | 0.5 to 10 | – | –
B2 | 0.5 to 10 | – | EC50, [35S]GTPγS assay (CEGPCR16): 64 nM
B3 | – | 60000 to 900000 | EC50, [35S]GTPγS assay (CEGPCR12h (C. elegans)): 330 nM
B4 | – | – | AF9-induced [35S]GTPγS binding, cells kept at 37° C. (third of three experiments; no stimulation in the other two) [1]: 1.4 fold; AF9-induced [35S]GTPγS binding, cooling (28° C.) protocol [1]: 2.6 fold; EC50, GTPγS assay [1]: 207 nM
B5 | 50000 to 500000 | – | EC50, GTPγS assay (CEGPCR3): 152 nM
B6 | – | 0.5 to 10 | –
B7 | 60000 to 900000 | – | EC50, GTPγS assay (CEGPCR3): 7900 nM
B8 | – | 50000 to 500000 | –
B9 | – | 60000 to 900000 | –
B10 | 1 to 60 | – | –
B11 | – | 0.5 to 10 | –
B12 | – | – | EC50, GTPγS assay (CEGPCR3): 422 nM
B13 | 1 to 60 | – | –
B14 | – | 0.5 to 10 | –
